Measurements reported in patent US7244563B2, “Genes for plant fatty acid modifying enzymes associated with conjugated double bond formation” (E. I. du Pont de Nemours and Company, priority 2002, dated 2007).

Tests used:
[1] = tested on: Tobacco (Nicotiana tabacum L. cv Xanthi) callus; assay: Fatty acid analysis (GC, GC-MS) of transgenic tobacco callus expressing the cDNA; type: cell-based; details: pBI121, 35S promoter, highest amount
From the text: The cDNAs encoding fatty acid modifying enzymes associated with conjugated double bond synthesis in seeds of Impatiens balsamina and Momordica charantia were introduced into a plant expression vector designated pML63. Vector pML63 contains the uidA gene (which encodes the GUS enzyme) operably linked to the CaMV35S promoter and 3′ NOS sequence. pML63 is modified from pMH40 to produce a minimal 3′ NOS terminator fragment. pMH 40 is described in WO 98/16650 which was published on Apr. 23, 1998, the disclosure of which are hereby incorporated by reference. Using standard techniques familiar to those skilled in the art, the 770 base pair terminator sequence contained in pMH40 was replaced with a new 3′ NOS terminator sequence comprising nucleotides 1277 to 1556 of the sequence published by Depicker et al. (1982, J. Appl. Genet. 1:561–574). A chimeric gene was constructed comprising cDNAs encoding fatty acid modifying enzymes associated with conjugated double bond synthesis in seeds of Impatiens balsamina and Momordica charantia in sense orientation with respect to the cauliflower mosaic virus 35S promoter that is located 5′ to the cDNA fragment and termination sequences from the nopaline synthase (NOS) that are located 3′ to the cDNA fragment. The cDNAs for the Impatiens polypeptide was introduced in the NcoI and EcoRI sites of the vector pML63. The cDNA for the Momordica polypeptide was introduced into the NcoI and SmaI sites of the vector pML63. The NcoI and EcoRI sites flanking the Impatiens cDNA were generated by PCR amplification of the cDNAs using oligonucleotide primers that contained these restriction sites (SEQ ID NO:7 and SEQ ID NO:8, for the sense and antisense oligonucleotides, respectively). PCR amplification was conducted using the Pfu DNA polymerase. The NcoI site flanking the 5′ end of the Momordica cDNA was generated by PCR amplification in a similar manner (SEQ ID NO:9 and SEQ ID NO:10). The 3′ end of the PCR-generated Momordica cDNA was blunt-ended which allowed for cloning into the SmaI site of the vector pML63. The resulting fusions of the cauliflower mosaic virus 35S promoter with the cDNAs encoding fatty acid modifying enzymes associated with conjugated double bond synthesis in seeds of Impatiens balsamina or Momordica charantia and NOS termination sequences were released from the vector pML63 by digestion with XbaI. The resulting XbaI fragment was ligated into the corresponding site of the binary vector pZS199 The vector pZS199 contains the following elements: (1) the chimeric gene nopaline synthase/neomycin phosphotransferase as a selectable marker for transformed plant cells (Brevan et al. (1984) Nature 304:184–186), (2) the left and right borders of the T-DNA of the Ti plasmid (Brevan et al. (1984) Nucl. Acids Res. 12:8711–8720), (3) the E. coli lacZ-complementing segment (Vieria and Messing (1982) Gene 19:259–267) with unique restriction endonuclease sites for EcoRI, KpnI, BamHI, XbaI and SalI, (4) the bacterial replication origin from the Pseudomonas plasmid pVS1 (Itoh et al. (1984) Plasmid 11:206–220), and (5) the bacterial neomycin phosphotransferase gene from Tn5 (Berg et al. (1975) Proc. Natl. Acad. Sci. U.S.A. 72:3628–3632) as a selectable marker for transformed A. tumefaciens. The nopaline synthase promoter in the plant selectable marker was replaced by the 35S promoter (Odell et al. (1985) Nature, 313:810–813) by a standard restriction endonuclease digestion and ligation strategy.
Gene fusions of the Impatiens balsamina or Momordica charantia cDNAs with the cauliflower mosaic virus 35S promoter and the NOS termination sequences in vector pZS199 were introduced into Agrobacterium tumefaciens strain LBA4404. […]

soybean embryos = assay: Fatty acid composition of transgenic soybean somatic embryos (GC, GC-MS); type: cell-based
Description: Gene fusions of the Impatiens balsamina or Momordica charantia cDNAs with the conglycinin promoter and phaseolin termination sequences in vector pKS67 were introduced into soybean embryos using the particle bombardment method of transformation. To induce somatic embryos, cotyledons, 3–5 mm in length dissected from surface sterilized, immature seeds of a soybean cultivar A2872 or JACK-910 were cultured in the light or dark at 26° C. on an appropriate agar medium for 6–10 weeks. Somatic embryos that produce secondary embryos were then excised and placed into a suitable liquid medium. After repeated selection for clusters of somatic embryos that multiplied as early, globular staged embryos, the suspensions were maintained as described below.
Soybean embryogenic suspension cultures were then transformed with the vector pKS67 containing the Impatiens or Momordica cDNA for fatty acid modifying enzymes associated with conjugated double synthesis by the method of particle gun bombardment (Klein et al. (1987) Nature (London) 327:70, U.S. Pat. No. 4,945,050). A DuPont Biolistic™ PDS1000/HE instrument (helium retrofit) was used for these transformations.
Five to seven days post bombardment, the liquid media was exchanged with fresh media, and eleven to twelve days post bombardment with fresh media containing […] hygromycin. This selective media was refreshed weekly. Seven to eight weeks post bombardment, green, transformed tissue was observed growing from untransformed, necrotic embryogenic clusters. Isolated green tissue was removed and inoculated into individual flasks to generate new, clonally propagated, transformed embryogenic suspension cultures. Each new line was treated as an independent transformation event. These suspensions were then subcultured and maintained as clusters of immature embryos.
Transgenic soybean embryos selected and maintained in this manner were analyzed for eleostearic acid and parinaric acid content using methods described in Example 4 (Table 1). Individual embryos expressing either the Impatiens or Momordica fatty acid modifying enzyme for conjugated double bond synthesis were homogenized in 1% (w/v) sodium methoxide in methanol. Fatty acid methyl esters resulting from this transesterification step were analyzed by both GC and GC-MS as described in Example 4. Methyl esters of eleostearic and parinaric acids were identified in transgenic soybean extracts by comparison of retention times and mass spectra with those of fatty acid methyl esters prepared from seeds of Impatiens balsamina and Momordica charantia. […] In soybean embryos expressing the Momordica enzyme, eleostearic acid was detected principally as α-eleostearic acid with lesser amounts of at least two other cis-trans isomers of eleostearic acid. […]

[2] = soybean embryos, six independent transgenic lines (n = 6), ± standard deviation, % of total oil weight

B1: ChrFad2: Chrysobalanus icaco fatty acid modifying enzyme associated with conjugated double bond synthesis, SEQ ID NO:20, cDNA SEQ ID NO:19 (protein)
chain: MGAGGQKTFPRLEEEEKQQQAAAAGFKRIPTTKPPFTLSDLKKAIPPHCFQRSLLRSFSYVFIDLTIISILGYIGATYICLLPPPSKYLAWLLYWAVQGCFFTGAWALAHDCGHHAFSDYQWIDDAVGMVLHSTLMVPYFSFKYSHRRHHSNINSLERDEVFVPRPKSKIKWYCSKYLNNPLGRVLTLAVTLILGWPMYLALNASGRDYDRFVSHFYPYGPIYNDRERLQIYISDAGIFIVSYVLYQVALAKGLPWLICIYGVPLFVNNALVVTITYLQHTHPELPRYGNSEWDWFKGTLATVDRDMGPLLNWATHHVSDTHYVHHLFSTMPHYHGVEATKAVKPMLGEYYRFDPTPLYKALWREAKECLFVEPDSKSPGVFWFDKF
modifications: Chrysobalanus icaco
With B1 the “α-eleostearic acid of the total fatty acids of callus samples” value [1] was ≤ 4.7 wt %, the “α-paranaric acid of the total fatty acids of callus samples” value [1] was ≤ 0.4 wt % and the “16:0” value (soybean embryos; soybean embryos, single embryos from six independent transgenic lines (n = 6), ± standard deviation, % of total oil weight) was 7.0 ± 1.4 Weight %. For the same molecule, the “18:0” value (soybean embryos; [2]) was 1.9 ± 0.6 Weight %, the “18:1” value (soybean embryos; [2]) was 37.6 ± 6.2 Weight % and the “18:2” value (soybean embryos; [2]) was 28.1 ± 3.8 Weight %. The “18:3” value (soybean embryos; [2]) was 6.0 ± 2.5 Weight %, the α-Parinaric (soybean embryos; [2]) was 0.9 ± 0.3 Weight % and the Eleostearic (soybean embryos; soybean embryos, six independent transgenic lines (n = 6), includes cis-trans isomers of α-eleostearic acid (<1.0 wt %)) was 16.4 ± 2.4 Weight %. The Other (soybean embryos; soybean embryos, six independent transgenic lines (n = 6), primarily 20:0, 20:1, 22:0, and 22:1) was <2.1 Weight %, the “α-paranaric acid of the total fatty acids” value (soybean embryos; soybean somatic embryos, β-conglycinin promoter) was “approximately 1 wt %” and the “α-eleostearic acid of the total fatty acids” value (soybean embryos; soybean somatic embryos, β-conglycinin promoter, highest amount) was ≤ 21 wt %.
